Test results taken from the DeepSol protein solubility set.

assay: soluble on expression in E. coli; label from the status in PepcDB or PDB records

Question: For “MGSDKIHHHHHHMNTIEDNLNQRISARIRIERESRGWSLNDLAERAGASRAMIHKIERGESSPTASMLGRLSGAFGISMSTLIARAEMQEGKLLRFASQPVWRDPQSHYLRRHVSPRSDLPIDLVQIELPPGSDVPMPAASYALARQLIWLQQGELVFVEGNTRHEMQAGDCLELGPPNDCRFINESAETCVYLVVRLNQSPSGS”, which “soluble on expression in E. coli” value is on record?
Answer: not soluble

Question: Which “soluble on expression in E. coli” value does the source give for “MLFELLYTSIAPAGLSDTELLSILEKARAKNQALDITGMLVYHNREIMQILEGEELKVRGLFQTIFQDERHTSVEVFYQGNIDHRAFSEWSMAFKLLDENTVKKMLIGYENFNPAKSPISMIASSPNRGKKTFLKLRDSL” here?
Answer: soluble

Question: With “MNHMEILSFPAGPYQTNCYVVLSEESEGRRYASVIDPGLRAKELIDQYCEENRVEVVQVLLTHGHIDHCRDAAALANGWGVALQIHRYDEFFLDKGNGMSEDSRLLFHADAMNLPDSVSYLGDGDEVELGGQRFVVRHAPGHSPGCVLFVGKDFCFSGDVLFKGSIGRTDLAHSDPHAMSNSIKSVVLGLEDSLTILPGHGPATTMRAEKASNPYLRV” as the sequence, how does the “soluble on expression in E. coli” value read?
Answer: not soluble

Question: Which “soluble on expression in E. coli” value does the source give for “MNKEALVQVAEEVRRATGLPVGWRDVERTLGALRATRDLWEAVRLSRVPLRFLVPIWEGLARRGLLRVEEGLDLLAEVPAPRPGEAACPACEGRGLVGERLPGRAAERFLAWAKERPEAIQDFDQGYVTPESTLARVALAWNWGDLEGKEVLVLGDDDLTGLAAALTGLPKRVVVLDADPRIVRFLERAAKAEGLPLEAHVHDLREPLPEAWVHAFHTFFTDPVEGPLGLQAFVGRGLLALEGEGCAGYVGLTHVEASLAKWADFQRFLLENGAVITELRDGFHVYENWGYIEQMRAWPWLPVKRRPEKPWYTSALIRLELLRRADLENARVEGDLQDEEATTY” here?
Answer: soluble

Question: With “MGSDKIHHHHHHMTLQQLRQVLTIAESNSMNEAAKKLFVSQPNLSATVREVEEELGITVFMRNNRGITVTAEGEEFLGYAKQVVEQYHLLENRYLNVESKKKFSVSMQHYSFAVKAFVQLAKEVGMDEYEFAVHETKTKEVIDNVKNLKSEIGVLYLSDFNEKVLRKLFKECDIEFKELFTCNTYVYLWKKHPLAGQKEITLDDLQEYPCLTFEQGVNNSFYYAEEMMSTYEYKRVIKADDRATMLNLMVGLNGFTLCSGIISEDLNGDDYAAIPLKESEKMHIGYIKHKGTKLSKLGEIYIDALKNYENKVL” as the sequence, how does the “soluble on expression in E. coli” value read?
Answer: not soluble

Question: Which “soluble on expression in E. coli” value does the source give for “MGSDKIHHHHHHMILCCGEALIDMLPRETTLGEKGFSPYAGGAVFNTGIALGRLGVASGFFTGLSDDMMGDILRDTLRASHVDFSYCATLSRPTTIAFVKLVDGHATYAFYDENTAGRMITEADLPALGEDCEALHFGAISLIPEPCGSTYEALLNREHKTRVISLDPNIRPGFIKDKAAHMARIRRMAALSDIVKFSDEDLAWFGLDGDEDTLARHWLHHGAKLVVVTRGADGAVGYTADHKVEVPSEKVTVVDTVGAGDTFDAGVLASLKMQNLLTKQQVAKLTEEQIAKALALGSKAAAVTVSRAGANPPFAHEIGL” here?
Answer: not soluble

Question: Which “soluble on expression in E. coli” value does the source give for “MINHLSAIDDIADAEQIRVLFYASNRMVHAPLNKVLDLIKNDTQRDLLSALTQYQEATEQRIETLQKNLDALRLQVSLSTHNLKK” here?
Answer: not soluble

Question: For “MNNMSLSDIFERFDTSKDGKISWEEFRDAIHALSPSIPSEKLVEMFIQLDTNGDGQVDAAKFASCMDQTAQSSGGDVEKELKDAFKLYDINCDGKISANELHVVMTRLGEKCTVESCVGMVQAIDVDGDGYIRFVGV”, which “soluble on expression in E. coli” value is on record?
Answer: soluble

Question: With “MGSDKIHHHHHHMKKKSMIVLTSAFVLLSAFSCGGGGKATGTNEQSEKVVVNVPQFDADSAYLYVKNQVDFGPRVPNTKEHVACGNYLAGKLEAFGAKVTNQYADLIAYDGTLLKARNIIGSYKPESKKRIALFAHWDTRPWADNDADEKNHHTPILGANDGASGVGALLEIARLVNQQQPELGIDIIFLDAEDYGTPQFYEGKHKEEAWCLGSQYWSRNPHVQGYNARFGILLDMVGGENSVFLKEGYSEEFAPDINKKVWKAAKKAGYGKTFIDERGDTITDDHLFINRLARIKTIDIIPNDPETGFPPTWHTIHDNMDHIDKNTLKAVGQTVLEVIYNEK” as the sequence, how does the “soluble on expression in E. coli” value read?
Answer: not soluble

Question: With “MSEKLKIVYRPLQELSPYAHNARTHSTEQVAQLVESIKQFGWTNPVLIDEKGEIIAGHGRVMAAEMLKMDSVPVIVLSGLTDEQKQR” as the sequence, how does the “soluble on expression in E. coli” value read?
Answer: soluble

Question: With “MGSDKIHHHHHHMRKLIFIAFMVMSVCGYAQKYEVGTTTAVWKAPAAADFLHAKAIGVKYVEVAFNQCYRGVPVDEVIPRIKEMKAKIDSADIEVWSIHLPFSRTLDISVLDDRLRKENVDFMAEMIELCAMFQPTCLVLHPSSEPIADSIRAQRIANASESIAYLKKYADRIGAQLCIENLPRTCLGNTPEELMRIVGDIPDVKVCFDTNHYTKGTTEHFVAIVGSRIGTIHASDFDLVNECHWLPTQGNIKWGKLMQDLEKTGYKGVFMYEATKDHENNNVRPALERIAETFDKITDDYKTLK” as the sequence, how does the “soluble on expression in E. coli” value read?
Answer: not soluble

Question: Which “soluble on expression in E. coli” value does the source give for “MSQLMNAHDRRNEPAPNAPPEFQLQNRTRPAPTPIEYITLSSDDEIEVIPPPPKRAKMMEEQKPKDLLENPQLPEVPSSSASFVIPQIVVDNEEVPEDPRMKTPSPIQGASVAMPVRARIQESPKVSRDPTPLSRASSVVIPEVPAVSEPEPLPVEVLAISIPTTSPDTAPSTSSSVETVESVTEVVAISSAEASSDAPARSPLKKKVANSVKPVVLPSRKSTRNKKDMNQIKEDEELVSNFNNGIGVISRGTIVPRGLSRTPFHFKKEATDDKAGKVKDMLKIDMQPVFTPAGHSSKDLIKRKARNSLEPSTSDADISFMKNERGKIRTGEKFQATIPDIEPSSTLTEYMDQEDKEEIFWETLDMDKDNLEESKKFHETLRNVYWRAIWRQFQGHIPFETALQHLMKNNLDFAQSLETIDENLKSLPQSFKEPCVAQVKIFDKLLQDKKTTRRQLQEKAMRNYHIAEVQQYHYRFRKFFKYQEKYGVVCNCAEKLCNNLKFEPRYGCTNCKKNVKSSSDHGATEKLCLICQTYQKLTGNVRPARNVEFCDDELEKIYHWSQKEEDLNRTLSREEFEELVREEKNKKWKNNDLSAEETAMLNQKELRIPNRRHRTHLSDQEKQARGEKICAQLQPYVLPHFSKCNCKRMGRSSWRCETEGKSSFSIQERKDYFREVRDCKGDLQQVARNLKVAPEVVRAFINIYGIEYDLEIYFPNKKLPNLIPIVYDIPPSNLPPIIPDGSSNSSSRDGSPYIPPEERSPKKRRSN” here?
Answer: not soluble

Question: For “MGHHHHHHSHMSCTIEKILTDAKTLLERLREHDAAAESLVDQSAALHRRVAAMREAGTALPDQYQEDASDMKDMSKYKPHILLSQENTQIRDLQQENRELWISLEEHQDALELIMSKYRKQMLQLMVAKKAVDAEPVLKAHQSHSAEIESQIDRICEMGEVMRKAVQVDDDQFCKIQEILAQLELENKELRELLSISSESHQARKENSMDTASQAIK”, which “soluble on expression in E. coli” value is on record?
Answer: not soluble

Question: With “MGHHHHHHSHMLGSWPARTFHPGACVSRRPSAPWKHTASGKDSPDLRFSEHGVSQEFWAGGLVAVLEMTPSPSPWGTQEDPAGMCSLWVVGWCPCRGAGVRDLVLVHAGVWCKHVCAVQRDACGESRTPAPPRKGGAVTSVLCLFLIKTFPLFSYKFASCKQVHKDPPLVKSGFE” as the sequence, how does the “soluble on expression in E. coli” value read?
Answer: soluble

Question: Which “soluble on expression in E. coli” value does the source give for “MQTSIISAQSLSKLVSTNQEHLTILKQVNLSIQAGESVAIVGASGAGKSTLMTLLAGLDTPSEGEVYLLGKPLSQLDDEARAALRSESVGFVFQSFLLIPSLSALENVTLPCLLKGEAEDRERAQKLLKAVGLEHRMHHSPAQLSGGEQQRVAIARAFMISPQVLFADEPTGNLDQETAAKVIDLLFELNREHGTTLVLVTHDPKLAQRCQRRFFMQAGELEERV” here?
Answer: not soluble

Question: With “MGGSGVEGLSGKRCWLAVRNASLCQFLETSLQRSGIVVTTYEGQEPTPEDVLITDEVVSKKWQGRAVVTFCRRHIGIPLEKAPGEWVHSVAAPHELPALLARIYLIEMESDDPANALPSTDKAVSDNDDMMILVVDDHPINRRLLADQLGSLGYQCKTANDGVDALNVLSKNHIDIVLSDVNMPNMDGYRLTQRIRQLGLTLPVIGVTANALAEEKQRCLESGMDSCLSKPVTLDVIKQTLTLYAERVRKSRDS” as the sequence, how does the “soluble on expression in E. coli” value read?
Answer: soluble
